# Test results as given in article PMC4526890, “Crystal structures of Mycobacterium tuberculosis GlgE and complexes with non-covalent inhibitors” (Scientific Reports, 2015).
# T1: Mycobacterium tuberculosis GlgE (Mycobacterium tuberculosis), P9WQ17
# T1 chain: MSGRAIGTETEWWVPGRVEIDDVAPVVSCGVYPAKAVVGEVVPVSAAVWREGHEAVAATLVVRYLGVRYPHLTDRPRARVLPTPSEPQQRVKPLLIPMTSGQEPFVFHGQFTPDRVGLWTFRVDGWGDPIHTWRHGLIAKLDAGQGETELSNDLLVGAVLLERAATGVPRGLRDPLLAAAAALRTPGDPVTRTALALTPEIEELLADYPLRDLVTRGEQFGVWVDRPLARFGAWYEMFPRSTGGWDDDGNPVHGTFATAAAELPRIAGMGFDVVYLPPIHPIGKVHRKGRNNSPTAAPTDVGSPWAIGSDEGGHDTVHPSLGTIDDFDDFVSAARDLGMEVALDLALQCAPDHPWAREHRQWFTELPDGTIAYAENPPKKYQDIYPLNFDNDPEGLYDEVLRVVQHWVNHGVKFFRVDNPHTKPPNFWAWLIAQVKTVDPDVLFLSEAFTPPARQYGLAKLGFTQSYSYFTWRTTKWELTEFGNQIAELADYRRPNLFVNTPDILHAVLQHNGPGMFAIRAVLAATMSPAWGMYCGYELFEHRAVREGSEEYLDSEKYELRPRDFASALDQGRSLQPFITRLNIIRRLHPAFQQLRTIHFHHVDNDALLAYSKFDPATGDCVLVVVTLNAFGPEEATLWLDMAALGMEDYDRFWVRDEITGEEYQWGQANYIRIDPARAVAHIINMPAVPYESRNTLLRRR
# Target: T1, Mycobacterium tuberculosis GlgE …
# Experiment: crystal structure; Mtb GlgE co-crystallised with 10 mM maltose (hanging drop, 0.1 M HEPES pH 7.5, 1.0 M ammonium formate), 3.3 Å; the same crystals soaked with 10 mM maltohexaose, 4.0 Å; homodimer seen in the crystal
# Details: remark: other sources report otherwise
binder,measurement,value
"Mycobacterium tuberculosis GlgE, P9WQ17 1-701 (enzyme) MSGRAIGTETEWWVPGRVEIDDVAPVVSCGVYPAKAVVGEVVPVSAAVWREGHEAVAATLVVRYLGVRYPHLTDRPRARVLPTPSEPQQRVKPLLIPMTSGQEPFVFHGQFTPDRVGLWTFRVDGWGDPIHTWRHGLIAKLDAGQGETELSNDLLVGAVLLERAATGVPRGLRDPLLAAAAALRTPGDPVTRTALALTPEIEELLADYPLRDLVTRGEQFGVWVDRPLARFGAWYEMFPRSTGGWDDDGNPVHGTFATAAAELPRIAGMGFDVVYLPPIHPIGKVHRKGRNNSPTAAPTDVGSPWAIGSDEGGHDTVHPSLGTIDDFDDFVSAARDLGMEVALDLALQCAPDHPWAREHRQWFTELPDGTIAYAENPPKKYQDIYPLNFDNDPEGLYDEVLRVVQHWVNHGVKFFRVDNPHTKPPNFWAWLIAQVKTVDPDVLFLSEAFTPPARQYGLAKLGFTQSYSYFTWRTTKWELTEFGNQIAELADYRRPNLFVNTPDILHAVLQHNGPGMFAIRAVLAATMSPAWGMYCGYELFEHRAVREGSEEYLDSEKYELRPRDFASALDQGRSLQPFITRLNIIRRLHPAFQQLRTIHFHHVDNDALLAYSKFDPATGDCVLVVVTLNAFGPEEATLWLDMAALGMEDYDRFWVRDEITGEEYQWGQANYIRIDPARAVAHIINMPAVPYESRNTLLRRR",stoichiometry N,2
